From patent US20250043302A1, “MUTATED HYDROXYPHENYLPYRUVATE DIOXYGENASE POLYPEPTIDE, AND CODING GENE AND USE THEREOF” (BEIJING DABEINONG BIOTECHNOLOGY CO., LTD., priority 2021, published 2025)

What was measured:
[1] = system: Arabidopsis thaliana T1 plants; test: Mesotrione tolerance of transgenic Arabidopsis thaliana T1 plants (spray, bleached leaf area grade, damage score); type: in vivo; parameters: Scores: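 damage score 0-100 computed as Σ(N×S)/(T×M)×100 over grades 0-3 with higher meaning more damage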; conditions: for Classification and statistics of the grade of pesticide damage Grade 0 / Classification and statistics of the grade of pesticide damage Grade 1 / Classification and statistics of the grade of pesticide damage Grade 2 / Classification and statistics of the grade of pesticide damage Grade 3: number of plants in grade
Method in brief: (§1)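 Read-out: per-plant damage grade 0–3 from proportion of bleached leaf area at 7 DAT (1 <50%, 2 >50%, 3 100%). Plants were T1 transformants, glufosinate-selected, plus wild-type CK, sprayed 18 days post-sowing. Rates: topramezone 25–200, isoxaflutole 35–280, mesotrione 52.5–420 g ai/ha.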

[2] = system: Arabidopsis thaliana T1 plants; test: Isoxaflutole tolerance of transgenic Arabidopsis thaliana T1 plants (spray, bleached leaf area grade, damage score); type: in vivo; conditions: for Classification and statistics of the grade of pesticide damage Grade 0 / Classification and statistics of the grade of pesticide damage Grade 1 / Classification and statistics of the grade of pesticide damage Grade 2 / Classification and statistics of the grade of pesticide damage Grade 3: number of plants in grade;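 as to Scores: Weighted damage index from 0 to 100 where higher means more damage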
Method in brief: as §1

B1: AsHPPDm-F372A-F415W-02: nucleotide sequence encoding Avena sativa HPPD with F372A+F415W; vector DBN11792 (nucleic acid)
DNA: ATGCCACCTACTCCAGCTACAGCTACTGGTGCTGCTGCTGCTGCCGTTACTCCTGAGCACGCTGCCAGGTCATTCCCCAGGGTGGTTCGCGTGAACCCCAGATCTGATAGGTTCCCAGTTCTGAGCTTCCACCATGTTGAGCTGTGGTGCGCTGATGCTGCTTCTGCTGCTGGCAGGTTCTCTTTCGCTCTTGGTGCTCCACTCGCTGCTAGATCTGATCTGTCTACAGGAAATAGCGCTCATGCCTCACTCCTGCTTCGCTCAGGTGCTTTGGCCTTCCTCTTCACCGCTCCATATGCTCCCCCACCTCAGGAGGCTGCTACTGCTGCTGCTACAGCCTCCATTCCAAGCTTCTCAGCTGATGCCGCTAGAACCTTCGCTGCTGCTCATGGACTTGCCGTGAGGTCTGTTGGTGTTCGCGTGGCTGATGCTGCTGAGGCTTTCAGAGTTTCCGTTGCCGGCGGAGCTAGGCCAGCTTTCGCTCCTGCTGATTTGGGACATGGTTTCGGCCTGGCTGAGGTTGAGCTTTACGGTGACGTGGTTCTCCGCTTCGTGTCTTACCCAGATGAGACTGACCTGCCTTTCCTTCCCGGCTTCGAGAGAGTTTCCTCTCCTGGTGCCGTGGATTACGGCCTGACAAGGTTCGACCACGTGGTTGGAAACGTTCCCGAGATGGCTCCAGTGATCGATTACATGAAGGGCTTCCTTGGATTCCATGAGTTCGCCGAGTTCACTGCTGAGGACGTGGGAACCACTGAGTCCGGTTTGAACTCTGTGGTTCTCGCCAACAATTCTGAGGCTGTTTTGCTCCCTCTGAATGAGCCTGTGCATGGAACCAAGAGGAGAAGCCAGATTCAAACTTACCTGGAGTACCACGGTGGCCCTGGAGTTCAGCATATCGCCCTTGCTTCTAATGATGTGTTGCGCACACTCAGAGAGATGCGCGCCAGAACCCCCATGGGAGGTTTCGAGTTCATGGCCCCACCACAGGCTAAGTACTACGAGGGCGTTAGAAGGATTGCTGGAGACGTGTTGAGCGAGGAGCAGATCAAGGAGTGCCAAGAGCTGGGTGTTCTTGTGGATAGGGATGACCAGGGCGTTCTGCTTCAAATTGCCACTAAGCCAGTGGGCGACCGCCCTACATTCTTCCTTGAGATGATTCAAAGAATCGGCTGCATGGAGAAGGATGAGGTTGGACAGGAGTACCAAAAGGGCGGATGCGGTGGCTTCGGAAAGGGTAACTGGAGCGAGTTGTTCAAGTCAATCGAGGACTACGAGAAGAGCCTCGAGGTGAAGCAGTCAGTGGTTGCCCAAAAGTCCTGA
modifications: AsHPPDm-F372A-F415W-02 Nucleotide Sequence
notes: vector DBN11792
Resistance evaluation ([1]; mesotrione 210 g ai/ha): Moderately
Scores ([1]; mesotrione 210 g ai/ha): 31
Classification and statistics of the grade of pesticide damage Grade 0 ([1]; mesotrione 210 g ai/ha): 6
Classification and statistics of the grade of pesticide damage Grade 1 ([1]; mesotrione 210 g ai/ha): 6
Classification and statistics of the grade of pesticide damage Grade 2 ([1]; mesotrione 210 g ai/ha): 3
Classification and statistics of the grade of pesticide damage Grade 3 ([1]; mesotrione 210 g ai/ha): 1
Resistance evaluation ([1]; mesotrione 420 g ai/ha): Poorly resistant
Scores ([1]; mesotrione 420 g ai/ha): 50
Classification and statistics of the grade of pesticide damage Grade 0 ([1]; mesotrione 420 g ai/ha): 0
Classification and statistics of the grade of pesticide damage Grade 1 ([1]; mesotrione 420 g ai/ha): 8
Classification and statistics of the grade of pesticide damage Grade 2 ([1]; mesotrione 420 g ai/ha): 8
Classification and statistics of the grade of pesticide damage Grade 3 ([1]; mesotrione 420 g ai/ha): 0
Resistance evaluation ([2]; isoxaflutole 140 g ai/ha): Moderately
Scores ([2]; isoxaflutole 140 g ai/ha): 31
Classification and statistics of the grade of pesticide damage Grade 0 ([2]; isoxaflutole 140 g ai/ha): 5
Classification and statistics of the grade of pesticide damage Grade 1 ([2]; isoxaflutole 140 g ai/ha): 7
Classification and statistics of the grade of pesticide damage Grade 2 ([2]; isoxaflutole 140 g ai/ha): 4
Classification and statistics of the grade of pesticide damage Grade 3 ([2]; isoxaflutole 140 g ai/ha): 0
Resistance evaluation ([2]; isoxaflutole 280 g ai/ha): Poorly
Scores ([2]; isoxaflutole 280 g ai/ha): 63
Classification and statistics of the grade of pesticide damage Grade 0 ([2]; isoxaflutole 280 g ai/ha): 0
Classification and statistics of the grade of pesticide damage Grade 1 ([2]; isoxaflutole 280 g ai/ha): 3
Classification and statistics of the grade of pesticide damage Grade 2 ([2]; isoxaflutole 280 g ai/ha): 12
Classification and statistics of the grade of pesticide damage Grade 3 ([2]; isoxaflutole 280 g ai/ha): 1
